Assay results from the Human Domainome abundance scans (Beltran et al. 2025).
± gives the uncertainty stated by the source.

Assay: abundance fitness (aPCA) (normalised: wild type 0, dead -1); higher = more abundant; growth selection in yeast, the domain comes from the species named
Conditions: Homo sapiens

| Substance | abundance fitness |
| --- | --- |
| NEDD4-like E3 ubiquitin-protein ligase WWP2 Q442P, O00308 | -0.067 ± 0.039 |
| NEDD4-like E3 ubiquitin-protein ligase WWP2 Q442S, O00308 | 0.008 ± 0.042 |
| NEDD4-like E3 ubiquitin-protein ligase WWP2 Q442T, O00308 | 0.048 ± 0.03 |
| NEDD4-like E3 ubiquitin-protein ligase WWP2 Q442V, O00308 | 0.093 ± 0.042 |
| NEDD4-like E3 ubiquitin-protein ligase WWP2 Q442W, O00308 | -0.122 ± 0.072 |
| NEDD4-like E3 ubiquitin-protein ligase WWP2 Q442Y, O00308 | 0.033 ± 0.048 |
| NEDD4-like E3 ubiquitin-protein ligase WWP2 Q485A, O00308 | -0.036 ± 0.039 |
| NEDD4-like E3 ubiquitin-protein ligase WWP2 Q485C, O00308 | -0.071 ± 0.053 |
| NEDD4-like E3 ubiquitin-protein ligase WWP2 Q485D, O00308 | -0.003 ± 0.053 |
| NEDD4-like E3 ubiquitin-protein ligase WWP2 Q485E, O00308 | -0.034 ± 0.046 |
| NEDD4-like E3 ubiquitin-protein ligase WWP2 Q485F, O00308 | -0.149 ± 0.075 |
| NEDD4-like E3 ubiquitin-protein ligase WWP2 Q485G, O00308 | -0.004 ± 0.035 |
| NEDD4-like E3 ubiquitin-protein ligase WWP2 Q485L, O00308 | -0.053 ± 0.035 |
| NEDD4-like E3 ubiquitin-protein ligase WWP2 Q485M, O00308 | -0.038 ± 0.048 |
| NEDD4-like E3 ubiquitin-protein ligase WWP2 Q485N, O00308 | 0.095 ± 0.067 |
| NEDD4-like E3 ubiquitin-protein ligase WWP2 Q485P, O00308 | -0.184 ± 0.068 |
| NEDD4-like E3 ubiquitin-protein ligase WWP2 Q485R, O00308 | -0.028 ± 0.038 |
| NEDD4-like E3 ubiquitin-protein ligase WWP2 Q485S, O00308 | -0.053 ± 0.046 |
| NEDD4-like E3 ubiquitin-protein ligase WWP2 Q485W, O00308 | -0.149 ± 0.062 |
| NEDD4-like E3 ubiquitin-protein ligase WWP2 Q485Y, O00308 | -0.126 ± 0.072 |
| NEDD4-like E3 ubiquitin-protein ligase WWP2 R460A, O00308 | -0.072 ± 0.044 |
| NEDD4-like E3 ubiquitin-protein ligase WWP2 R460C, O00308 | -0.277 ± 0.074 |

| Substance | abundance fitness |
| --- | --- |
| NEDD4-like E3 ubiquitin-protein ligase WWP2 R460D, O00308 | -0.169 ± 0.083 |
| NEDD4-like E3 ubiquitin-protein ligase WWP2 R460E, O00308 | -0.183 ± 0.063 |
| NEDD4-like E3 ubiquitin-protein ligase WWP2 R460F, O00308 | -0.261 ± 0.065 |
| NEDD4-like E3 ubiquitin-protein ligase WWP2 R460G, O00308 | -0.166 ± 0.041 |
| NEDD4-like E3 ubiquitin-protein ligase WWP2 R460H, O00308 | -0.033 ± 0.081 |
| NEDD4-like E3 ubiquitin-protein ligase WWP2 R460I, O00308 | -0.036 ± 0.074 |
| NEDD4-like E3 ubiquitin-protein ligase WWP2 R460K, O00308 | -0.088 ± 0.064 |
| NEDD4-like E3 ubiquitin-protein ligase WWP2 R460L, O00308 | -0.088 ± 0.036 |
| NEDD4-like E3 ubiquitin-protein ligase WWP2 R460N, O00308 | -0.343 ± 0.073 |
| NEDD4-like E3 ubiquitin-protein ligase WWP2 R460P, O00308 | -0.032 ± 0.06 |
| NEDD4-like E3 ubiquitin-protein ligase WWP2 R460Q, O00308 | -0.104 ± 0.054 |
| NEDD4-like E3 ubiquitin-protein ligase WWP2 R460S, O00308 | -0.153 ± 0.06 |
| NEDD4-like E3 ubiquitin-protein ligase WWP2 R460T, O00308 | -0.032 ± 0.061 |
| NEDD4-like E3 ubiquitin-protein ligase WWP2 R460V, O00308 | -0.137 ± 0.044 |
| NEDD4-like E3 ubiquitin-protein ligase WWP2 R460W, O00308 | -0.413 ± 0.036 |
| NEDD4-like E3 ubiquitin-protein ligase WWP2 R460Y, O00308 | -0.558 ± 0.12 |
| NEDD4-like E3 ubiquitin-protein ligase WWP2 R468A, O00308 | -0.157 ± 0.035 |
| NEDD4-like E3 ubiquitin-protein ligase WWP2 R468C, O00308 | -0.184 ± 0.06 |
| NEDD4-like E3 ubiquitin-protein ligase WWP2 R468D, O00308 | -0.479 ± 0.06 |
| NEDD4-like E3 ubiquitin-protein ligase WWP2 R468E, O00308 | -0.14 ± 0.039 |
| NEDD4-like E3 ubiquitin-protein ligase WWP2 R468G, O00308 | -0.2 ± 0.033 |
| NEDD4-like E3 ubiquitin-protein ligase WWP2 R468H, O00308 | -0.015 ± 0.08 |

| Substance | abundance fitness |
| --- | --- |
| NEDD4-like E3 ubiquitin-protein ligase WWP2 R468I, O00308 | -0.51 ± 0.12 |
| NEDD4-like E3 ubiquitin-protein ligase WWP2 R468K, O00308 | -0.071 ± 0.071 |
| NEDD4-like E3 ubiquitin-protein ligase WWP2 R468L, O00308 | -0.191 ± 0.047 |
| NEDD4-like E3 ubiquitin-protein ligase WWP2 R468M, O00308 | -0.11 ± 0.033 |
| NEDD4-like E3 ubiquitin-protein ligase WWP2 R468N, O00308 | -0.208 ± 0.08 |
| NEDD4-like E3 ubiquitin-protein ligase WWP2 R468Q, O00308 | -0.111 ± 0.066 |
| NEDD4-like E3 ubiquitin-protein ligase WWP2 R468S, O00308 | -0.212 ± 0.053 |
| NEDD4-like E3 ubiquitin-protein ligase WWP2 R468T, O00308 | -0.336 ± 0.069 |
| NEDD4-like E3 ubiquitin-protein ligase WWP2 R468V, O00308 | -0.352 ± 0.036 |
| NEDD4-like E3 ubiquitin-protein ligase WWP2 R468W, O00308 | -0.336 ± 0.066 |
| NEDD4-like E3 ubiquitin-protein ligase WWP2 R468Y, O00308 | -0.251 ± 0.064 |
| NEDD4-like E3 ubiquitin-protein ligase WWP2 R476A, O00308 | -0.291 ± 0.058 |
| NEDD4-like E3 ubiquitin-protein ligase WWP2 R476C, O00308 | -0.198 ± 0.061 |
| NEDD4-like E3 ubiquitin-protein ligase WWP2 R476D, O00308 | -0.297 ± 0.047 |
| NEDD4-like E3 ubiquitin-protein ligase WWP2 R476F, O00308 | -0.505 ± 0.084 |
| NEDD4-like E3 ubiquitin-protein ligase WWP2 R476G, O00308 | -0.206 ± 0.051 |
| NEDD4-like E3 ubiquitin-protein ligase WWP2 R476H, O00308 | -0.4 ± 0.081 |
| NEDD4-like E3 ubiquitin-protein ligase WWP2 R476K, O00308 | -0.248 ± 0.069 |
| NEDD4-like E3 ubiquitin-protein ligase WWP2 R476L, O00308 | -0.202 ± 0.037 |
| NEDD4-like E3 ubiquitin-protein ligase WWP2 R476M, O00308 | -0.324 ± 0.048 |
| NEDD4-like E3 ubiquitin-protein ligase WWP2 R476N, O00308 | -0.186 ± 0.049 |
| NEDD4-like E3 ubiquitin-protein ligase WWP2 R476P, O00308 | -0.188 ± 0.07 |

| Substance | abundance fitness |
| --- | --- |
| NEDD4-like E3 ubiquitin-protein ligase WWP2 R476Q, O00308 | -0.406 ± 0.074 |
| NEDD4-like E3 ubiquitin-protein ligase WWP2 R476S, O00308 | -0.271 ± 0.052 |
| NEDD4-like E3 ubiquitin-protein ligase WWP2 R476T, O00308 | -0.075 ± 0.049 |
| NEDD4-like E3 ubiquitin-protein ligase WWP2 R476W, O00308 | -0.294 ± 0.045 |
| NEDD4-like E3 ubiquitin-protein ligase WWP2 R476Y, O00308 | -0.369 ± 0.05 |
| NEDD4-like E3 ubiquitin-protein ligase WWP2 R493A, O00308 | -0.237 ± 0.12 |
| NEDD4-like E3 ubiquitin-protein ligase WWP2 R493C, O00308 | -0.399 ± 0.12 |
| NEDD4-like E3 ubiquitin-protein ligase WWP2 R493E, O00308 | -0.058 ± 0.063 |
| NEDD4-like E3 ubiquitin-protein ligase WWP2 R493F, O00308 | 0.299 ± 0.12 |
| NEDD4-like E3 ubiquitin-protein ligase WWP2 R493G, O00308 | 0.041 ± 0.064 |
| NEDD4-like E3 ubiquitin-protein ligase WWP2 R493H, O00308 | 0.065 ± 0.087 |
| NEDD4-like E3 ubiquitin-protein ligase WWP2 R493I, O00308 | -0.502 ± 0.18 |
| NEDD4-like E3 ubiquitin-protein ligase WWP2 R493K, O00308 | -0.022 ± 0.089 |
| NEDD4-like E3 ubiquitin-protein ligase WWP2 R493L, O00308 | -0.088 ± 0.1 |
| NEDD4-like E3 ubiquitin-protein ligase WWP2 R493M, O00308 | -0.083 ± 0.082 |
| NEDD4-like E3 ubiquitin-protein ligase WWP2 R493N, O00308 | -0.666 ± 0.28 |
| NEDD4-like E3 ubiquitin-protein ligase WWP2 R493P, O00308 | -0.006 ± 0.063 |
| NEDD4-like E3 ubiquitin-protein ligase WWP2 R493Q, O00308 | 0.132 ± 0.11 |
| NEDD4-like E3 ubiquitin-protein ligase WWP2 R493S, O00308 | -0.201 ± 0.079 |
| NEDD4-like E3 ubiquitin-protein ligase WWP2 R493T, O00308 | 0.002 ± 0.056 |
| NEDD4-like E3 ubiquitin-protein ligase WWP2 R493V, O00308 | -0.069 ± 0.037 |
| NEDD4-like E3 ubiquitin-protein ligase WWP2 R493W, O00308 | -0.013 ± 0.071 |
